Results published in patent US20030068675, “Position dependent recognition of GNN nucleotide triplets by zinc fingers” (published 2003).
Positions count from the first letter of the chain named.

What was measured:
Assay in all cases: EMSA
Conditions in all cases: tags: MBP fusion
[1] = target: T1, ZFP SBS#1122 (synthetic)
T1 chain: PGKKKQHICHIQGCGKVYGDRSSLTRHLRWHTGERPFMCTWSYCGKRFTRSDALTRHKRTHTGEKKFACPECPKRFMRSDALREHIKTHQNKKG
Method in brief: (§1)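 Purified ZFP was titrated against labeled double-stranded target (1 nM or lower, at least 10-fold below expected Kd) carrying the natural binding site with flanks. Binding buffer was 10 mM Tris pH 7.5, 100 mM KCl, 1 mM MgCl2, 0.1 mM ZnCl2, 5 mM DTT, 10% glycerol, 0.02% BSA, with equilibration for at least 45 min. Bound and free target were separated on a 10% polyacrylamide gel.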

[2] = target: T2, ZFP SBS#1121 (synthetic)
T2 chain: T1 chain with D20E, S22G, S23D
Method in brief: as §1

[3] = target: T3, ZFP SBS#1118 (synthetic)
T3 chain: T1 chain with S23A, R50Q, S51R, D52A, A53H, T55E, A81N, R83T, E84T
Method in brief: as §1

[4] = target: ZFP SBS#1137 (synthetic)
Method in brief: as §1

[5] = target: T4, ZFP SBS#1136 (synthetic)
T4 chain: T1 chain with D20R, R21S, S22D, S23A, R50Q, S51R, D52A, A53H, T55E, A81T
Method in brief: as §1

[6] = target: T5, ZFP SBS#1152 (synthetic)
T5 chain: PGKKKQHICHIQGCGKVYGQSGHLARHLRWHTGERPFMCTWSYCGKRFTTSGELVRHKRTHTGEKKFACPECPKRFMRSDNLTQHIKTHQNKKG
Method in brief: as §1

[7] = target: T6, ZFP SBS#1153 (synthetic)
T6 chain: T5 chain with S21R, G22A
Method in brief: as §1

[8] = target: T7, ZFP SBS#472 (synthetic)
T7 chain: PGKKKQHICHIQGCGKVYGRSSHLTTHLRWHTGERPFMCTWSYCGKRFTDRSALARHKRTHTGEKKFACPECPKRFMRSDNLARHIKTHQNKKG
Method in brief: as §1

[9] = target: T8, ZFP SBS#1120 (synthetic)
T8 chain: T7 chain with S22D, H23E, T26R, A53N, A55T, N81H, A83T, R84Q
Method in brief: as §1

[10] = target: T9, ZFP SBS#1124 (synthetic)
T9 chain: T5 chain with E53N, N81A, Q84R
Method in brief: as §1

[11] = target: ZFP SBS#259 (synthetic)
Method in brief: as §1

[12] = target: ZFP SBS#1123 (synthetic)
Method in brief: as §1

[13] = target: T10, ZFP SBS#1119 (synthetic, UniProt P08047)
T10 chain: T5 chain with Q20T, A25V, T50R, G52D, E53N, V55A, N81H, Q84T
Method in brief: as §1

[14] = target: T11, ZFP SBS#1132 (synthetic, UniProt P08047)
T11 chain: T5 chain with N81H, T83S, Q84R
Method in brief: as §1

[15] = target: T12, ZFP SBS#1133 (synthetic, UniProt P08047)
T12 chain: T5 chain with S21R, G22A, A25E, N81H, T83S, Q84R
Method in brief: as §1

[16] = target: ZFP SBS#1113 (synthetic)
Method in brief: as §1

[17] = target: ZFP SBS#1134 (synthetic, UniProt P08047)
Method in brief: as §1

[18] = target: T13, ZFP SBS#1111 (synthetic)
T13 chain: T5 chain with Q20R, G22D, T50Q, G52S, E53S, N81A, T83R, Q84E
Method in brief: as §1

[19] = target: ZFP SBS#1112 (synthetic)
Method in brief: as §1

[20] = target: T14, ZFP SBS#1154 (synthetic, UniProt P08047)
T14 chain: T1 chain with D20R, R21S, S22D, S23N, R26T, A53E, T55Q
Method in brief: as §1

[21] = target: ZFP SBS#468 (synthetic)
Method in brief: as §1

[22] = target: ZFP SBS#467 (synthetic)
Method in brief: as §1

[23] = target: ZFP SBS#466 (synthetic)
Method in brief: as §1

[24] = target: T15, ZFP SBS#1148 (synthetic)
T15 chain: T1 chain with D20R, R21S, S22D, S23N, A53N, S79G, R83T, E84S
Method in brief: as §1

[25] = target: ZFP SBS#1149 (synthetic)
Method in brief: as §1

[26] = target: ZFP SBS#1138 (synthetic)
Method in brief: as §1

[27] = target: T16, ZFP SBS#1109 (synthetic)
T16 chain: T5 chain with Q20E, S21R, H23D, A25T, T50Q, S51R, G52A, E53H, V55E, N81H
Method in brief: as §1

[28] = target: T17, ZFP SBS#1110 (synthetic)
T17 chain: T1 chain with R50Q, S51R, D52A, A53H, T55E, A81H, R83T, E84Q
Method in brief: as §1

[29] = target: T18, ZFP SBS#469 (synthetic)
T18 chain: T1 chain with S23A, T25A, A53N, T55A, R78Q, D80G, A81N, R83T, E84R
Method in brief: as §1

[30] = target: ZFP SBS#1115 (synthetic)
Method in brief: as §1

[31] = target: T19, ZFP SBS#1114 (synthetic)
T19 chain: T5 chain with G22S, H23N, E53S, V55T, T83R, Q84E
Method in brief: as §1

[32] = target: T20, ZFP SBS#1130 (synthetic)
T20 chain: T1 chain with S23N, R50Q, D52G, A53D, R78M, D80H, A81H, R83S, E84R
Method in brief: as §1

[33] = target: ZFP SBS#1135 (synthetic, UniProt P08047)
Method in brief: as §1

ZFP SBS#466 (synthetic), sequence (chain, as listed by the source): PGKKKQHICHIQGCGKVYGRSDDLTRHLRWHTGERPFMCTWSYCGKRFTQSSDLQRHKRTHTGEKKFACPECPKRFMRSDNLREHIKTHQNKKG
ZFP SBS#1112 (synthetic), sequence (chain, as listed by the source): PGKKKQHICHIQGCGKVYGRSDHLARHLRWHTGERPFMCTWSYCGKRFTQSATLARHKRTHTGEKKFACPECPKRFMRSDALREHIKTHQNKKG
ZFP SBS#1123 (synthetic), sequence (chain, as listed by the source): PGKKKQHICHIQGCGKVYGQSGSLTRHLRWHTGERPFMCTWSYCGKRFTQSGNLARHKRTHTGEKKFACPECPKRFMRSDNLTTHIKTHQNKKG
ZFP SBS#468 (synthetic), sequence (chain, as listed by the source): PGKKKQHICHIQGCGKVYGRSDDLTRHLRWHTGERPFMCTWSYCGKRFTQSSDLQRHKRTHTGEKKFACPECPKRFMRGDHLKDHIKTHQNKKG
ZFP SBS#1115 (synthetic), sequence (chain, as listed by the source): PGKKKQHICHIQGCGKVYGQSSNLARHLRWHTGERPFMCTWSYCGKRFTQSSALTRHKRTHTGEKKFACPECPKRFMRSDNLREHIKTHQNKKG
ZFP SBS#1138 (synthetic), sequence (chain, as listed by the source): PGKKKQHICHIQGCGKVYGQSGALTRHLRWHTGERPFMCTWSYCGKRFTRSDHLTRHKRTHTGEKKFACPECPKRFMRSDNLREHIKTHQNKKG
ZFP SBS#467 (synthetic), sequence (chain, as listed by the source): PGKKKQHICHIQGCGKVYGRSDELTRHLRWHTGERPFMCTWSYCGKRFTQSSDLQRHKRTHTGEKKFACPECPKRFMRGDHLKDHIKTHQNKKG

B1: CTGGTGGCC (dsDNA)
DNA 1: CTGGTGGCC
DNA 2: GGCCACCAG
Kd [1]: 0.101 nM
Kd [2]: 2.76 nM

B2: TAGGGAGTC (dsDNA)
DNA 1: TAGGGAGTC
DNA 2: GACTCCCTA
Kd [3]: 1.4 nM

B3: CCGGGAGTG (dsDNA)
DNA 1: CCGGGAGTG
DNA 2: CACTCCCGG
Kd [4]: 0.085 nM
Kd [5]: 0.225 nM

B4: AAGGCTGGA (dsDNA)
DNA 1: AAGGCTGGA
DNA 2: TCCAGCCTT
Kd [6]: 1.6 nM
Kd [7]: 8.2 nM

B5: GAGGTCTGGA (dsDNA)
DNA 1: GAGGTCTGGA
DNA 2: TCCAGACCTC
Kd [8]: 80 nM

B6: AGGGACGCG (dsDNA)
DNA 1: AGGGACGCG
DNA 2: CGCGTCCCT
Kd [9]: 2.73 nM

B7: GTGGATGGA (dsDNA)
DNA 1: GTGGATGGA
DNA 2: TCCATCCAC
Kd [10]: 0.101 nM

B8: GCAGAGGAG (dsDNA)
DNA 1: GCAGAGGAG
DNA 2: CTCCTCTGC
Kd [11]: 250 nM

B9: TAGGAAGCA (dsDNA)
DNA 1: TAGGAAGCA
DNA 2: TGCTTCCTA
Kd [12]: 0.065 nM

B10: TGGGAGGGT (dsDNA)
DNA 1: TGGGAGGGT
DNA 2: ACCCTCCCA
Kd [13]: 0.1 nM

B11: GGGGCTGGA (dsDNA)
DNA 1: GGGGCTGGA
DNA 2: TCCAGCCCC
Kd [14]: 0.055 nM
Kd [15]: 0.5 nM

B12: CTGGGGGCA (dsDNA)
DNA 1: CTGGGGGCA
DNA 2: TGCCCCCAG
Kd [16]: 0.06 nM

B13: TGGGGGTGG (dsDNA)
DNA 1: TGGGGGTGG
DNA 2: CCACCCCCA
Kd [17]: 0.067 nM

B14: CTGGTAGGG (dsDNA)
DNA 1: CTGGTAGGG
DNA 2: CCCTACCAG
Kd [18]: 0.095 nM
Kd [19]: 0.125 nM

B15: CTGGCGTAG (dsDNA)
DNA 1: CTGGCGTAG
DNA 2: CTACGCCAG
Kd [20]: 1.04 nM

B16: CAGGCTGCGC (dsDNA)
DNA 1: CAGGCTGCGC
DNA 2: GCGCAGCCTG
Kd [21]: 42 nM
Kd [22]: 800 nM
Kd [23]: 65 nM

B17: TTGGAGGAG (dsDNA)
DNA 1: TTGGAGGAG
DNA 2: CTCCTCCAA
Kd [24]: 0.006 nM
Kd [25]: 0.004 nM

B18: CAGGGGGTA (dsDNA)
DNA 1: CAGGGGGTA
DNA 2: TACCCCCTG
Kd [26]: 0.027 nM

B19: AGGGGAGCC (dsDNA)
DNA 1: AGGGGAGCC
DNA 2: GGCTCCCCT
Kd [27]: 0.347 nM
Kd [28]: 0.095 nM

B20: GAAGAGGTCT (dsDNA)
DNA 1: GAAGAGGTCT
DNA 2: AGACCTCTTC
Kd [29]: 13.5 nM

B21: CAGGTTGAT (dsDNA)
DNA 1: CAGGTTGAT
DNA 2: ATCAACCTG
Kd [30]: 0.7 nM
Kd [31]: 2.75 nM

B22: GGTGCAGAC (dsDNA)
DNA 1: GGTGCAGAC
DNA 2: GTCTGCACC
Kd [32]: 0.1 nM

B23: GCGGCGGGG (dsDNA)
DNA 1: GCGGCGGGG
DNA 2: CCCCGCCGC
Kd [33]: 0.025 nM
